From patent US20220372167 come the findings set out here.

Data set [1] has as its target T1, murine IGFBP-2 with C-terminal 6His tag, P47877.
T1 chain: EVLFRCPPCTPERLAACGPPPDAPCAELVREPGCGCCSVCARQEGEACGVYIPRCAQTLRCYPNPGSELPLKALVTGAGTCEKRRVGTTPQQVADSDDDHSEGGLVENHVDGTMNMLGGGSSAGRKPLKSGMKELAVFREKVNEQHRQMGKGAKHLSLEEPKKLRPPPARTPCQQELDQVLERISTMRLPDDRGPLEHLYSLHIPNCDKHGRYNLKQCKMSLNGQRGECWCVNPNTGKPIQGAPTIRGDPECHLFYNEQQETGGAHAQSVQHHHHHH

The target of data set [2] is T2, murine IGFBP-4 with C-terminal 6His tag, P47879.
T2 chain: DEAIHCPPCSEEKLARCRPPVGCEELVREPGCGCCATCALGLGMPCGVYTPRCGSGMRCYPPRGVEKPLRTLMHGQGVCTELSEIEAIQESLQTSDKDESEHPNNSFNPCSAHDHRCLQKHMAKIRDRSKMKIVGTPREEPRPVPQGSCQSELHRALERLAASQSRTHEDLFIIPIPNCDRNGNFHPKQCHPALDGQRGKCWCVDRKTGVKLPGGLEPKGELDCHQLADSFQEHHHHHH

In data set [3] the target is T3, murine IGFBP-5 with C-terminal 6His tag, Q07079.
T3 chain: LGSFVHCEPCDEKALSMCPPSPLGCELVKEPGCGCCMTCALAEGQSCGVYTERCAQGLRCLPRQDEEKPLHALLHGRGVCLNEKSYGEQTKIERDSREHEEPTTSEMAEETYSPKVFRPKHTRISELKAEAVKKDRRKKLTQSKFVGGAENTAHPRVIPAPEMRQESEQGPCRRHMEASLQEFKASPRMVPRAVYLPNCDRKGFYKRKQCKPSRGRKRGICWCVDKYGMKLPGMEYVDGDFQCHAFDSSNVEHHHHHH

Data set [4] concerns the target five representative anti-PAPP-A antibodies generated from yeast display libraries.
The target in data set [5] is T4, human IGFBP-4 with N-terminal 6His tag, P22692.
T4 chain: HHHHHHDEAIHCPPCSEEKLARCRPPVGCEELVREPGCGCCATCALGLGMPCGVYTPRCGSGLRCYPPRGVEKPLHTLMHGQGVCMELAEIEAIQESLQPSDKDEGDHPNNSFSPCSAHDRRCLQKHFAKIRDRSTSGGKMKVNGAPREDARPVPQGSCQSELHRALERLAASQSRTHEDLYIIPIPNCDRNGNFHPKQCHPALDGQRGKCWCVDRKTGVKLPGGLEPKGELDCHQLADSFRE

For data set [6], the target named is T5, human IGFBP-2 with N-terminal 6His tag, P18065.
T5 chain: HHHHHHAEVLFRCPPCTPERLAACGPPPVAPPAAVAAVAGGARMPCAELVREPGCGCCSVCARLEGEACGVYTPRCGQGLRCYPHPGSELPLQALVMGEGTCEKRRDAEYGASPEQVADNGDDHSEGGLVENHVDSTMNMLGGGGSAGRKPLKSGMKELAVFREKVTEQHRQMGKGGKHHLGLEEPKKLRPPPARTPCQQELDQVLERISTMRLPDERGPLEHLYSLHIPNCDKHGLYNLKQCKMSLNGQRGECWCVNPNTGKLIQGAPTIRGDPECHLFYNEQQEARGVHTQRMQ

Data set [7] deals with human IGFBP-5 with N-terminal 6His tag, P24593.
Chain of human IGFBP-5 with N-terminal 6His tag, P24593 (P24593 other isoform, or with tags, fused parts or gaps): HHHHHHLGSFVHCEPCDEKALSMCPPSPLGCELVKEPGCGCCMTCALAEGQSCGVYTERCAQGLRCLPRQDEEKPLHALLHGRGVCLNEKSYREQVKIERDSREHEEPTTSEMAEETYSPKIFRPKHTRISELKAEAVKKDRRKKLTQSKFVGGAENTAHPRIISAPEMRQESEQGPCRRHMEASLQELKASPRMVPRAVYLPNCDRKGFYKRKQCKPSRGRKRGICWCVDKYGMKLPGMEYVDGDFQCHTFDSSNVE

B1: murine PAPP-A protein with C-terminal C-myc and Flag tags (protein)
chain: RGAEEPSPPSRALYFSGRGEQLRLRADLELPRDAFTLQVWLRAEGGQKSPAVITGLYDKCSYTSRDRGWVMGIHTTSDQGNRDPRYFFSLKTDRARKVTTIDAHRSYLPGQWVHLAATYDGRLMKLYMNGAQVATSAEQVGGIFSPLTQKCKVLMLGGSALNHNFRGHIEHFSLWKVARTQREIVSDMETRGLHTPLPQLLLQENWDNVKRTWSPMKDGNSPQVEFSNAHGFLLDTNLEPPLCGQTLCDNTEVISSYNQLPSFRQPKVVRYRVVNIYDDHHENPTVSWQQIDFQHQQLAEAFQHYNISWELEVLNINSSSLRHRLILANCDISKIGDEKCDPECNHTLTGHDGGDCRQLRYPAFMKKQQNGVCDMDCNYERFNFDGGECCDPDITDVTKTCFDPDSPHRAYLDVNELKNILRLDGSTHLNIFFANSSEEELAGVATWPWDKEALMHLGGIVLNPSFYGIPGHTHTMIHEIGHSLGLYHIFRGISEIQSCSDPCMETEPSFETGDLCNDTNPAPKHKFCGDPGPGNDTCGFHGFFNTPYNNFMSYADDDCTDSFTPNQVSRMHCYLDLVYQSWQPSRKPAPVALAPQVVGHTMDSVMLEWFPPIDGHFFERELGSACDLCLEGRILVQYAFNASSPMPCGPSGHWSPREAEGHPDVEQPCKSSVRTWSPNSAVNPHTVPPACPEPQGCYLELEFRYPLVPESLTIWVTFVSSDWDSSGAVNDIKLLTISGKNISLGPQNVFCDIPLTIRLRDVGEEVYGIQIYTLDEHLEIDAAMLTSTVDSPLCLQCKPLQYKVLRDPPLLEDVASLLHLNRRFMDTDLKLGSVYQYRIITISGNEESEPSPAAIYTHGSGYCGDGVIQKDQGEECDDMNKVNGDGCSLFCKQEVSFNCIDEPSRCYFHDGDGMCEEFEQKTSIKDCGVYTPQGFLDQWASNASVSHQDQQCPGWVVIGQPAASQVCRTKVIDLSEGISQHAWYPCTITYPYYHLPQTTFWLQTYFSQPMVAAAVIIHLVTDGTYYGDQKQETISVQLLDTKDQSHDLGLHVLSCRNNPLIIPVVHDLSQPFYHSQAVHVSFSSPLVAISGVALRSFDNFDPVTLSSCQRGETYSPAEQSCVHFACQAADCPELAVGNASLNCSSNHHYHGAQCTVSCQTGYVLQIQRDDELIKSQVGPSITVTCTEGKWNKQVACEPVDCGIPDHHHVYAASFSCPEGTTFGRRCSFQCRHPAQLKGNNSFLTCMEDGLWSFPEALCELMCLAPPPVPNADLQTARCRENKHKVGSFCKYKCKPGYHVPGSSRKSKKRAFKTQCTQDGSWQEGTCVPVTCDPPPPKFHGLYQCTNGFQFNSECRIKCEDSDASQGRGSNIIHCRKDGTWSGSFHVCREMQGQCSAPNQLNSNLKLQCPDGYAIGSECAISCLDHNSESIILPVNLTVRDIPHWMNPTRVQRIVCTAGLQWYPHPALIHCVKGCEPFMGDNYCDAINNRAFCNYDGGDCCTSTVKTKKVTPFPMSCDLQNDCACRDPEAQEHNRKDLRGYSHG
Take B1: the “enzymatic cleavage of IGFBP by PAPP-A” value in data set [1] was “cleavage of both human and murine IGFBP-4 and IGFBP-2 by PAPP-A”; in data set [2] it was “cleavage of both human and murine IGFBP-4 and IGFBP-2 by PAPP-A”; in data set [3] it was “PAPP-A's ability to cleave IGFBP-5”.

B2: human PAPP-A protein with C-terminal C-myc and Flag tags (protein)
chain: EARGATEEPSPPSRALYFSGRGEQLRVLRADLELPRDAFTLQVWLRAEGGQRSPAVITGLYDKCSYISRDRGWVVGIHTISDQDNKDPRYFFSLKTDRARQVTTINAHRSYLPGQWVYLAATYDGQFMKLYVNGAQVATSGEQVGGIFSPLTQKCKVLMLGGSALNHNYRGYIEHFSLWKVARTQREILSDMETHGAHTALPQLLLQENWDNVKHAWSPMKDGSSPKVEFSNAHGFLLDTSLEPPLCGQTLCDNTEVIASYNQLSSFRQPKVVRYRVVNLYEDDHKNPTVTREQVDFQHHQLAEAFKQYNISWELDVLEVSNSSLRRRLILANCDISKIGDENCDPECNHTLTGHDGGDCRHLRHPAFVKKQHNGVCDMDCNYERFNFDGGECCDPEITNVTQTCFDPDSPHRAYLDVNELKNILKLDGSTHLNIFFAKSSEEELAGVATWPWDKEALMHLGGIVLNPSFYGMPGHTHTMIHEIGHSLGLYHVFRGISEIQSCSDPCMETEPSFETGDLCNDTNPAPKHKSCGDPGPGNDTCGFHSFFNTPYNNFMSYADDDCTDSFTPNQVARMHCYLDLVYQGWQPSRKPAPVALAPQVLGHTTDSVTLEWFPPIDGHFFERELGSACHLCLEGRILVQYASNASSPMPCSPSGHWSPREAEGHPDVEQPCKSSVRTWSPNSAVNPHTVPPACPEPQGCYLELEFLYPLVPESLTIWVTFVSTDWDSSGAVNDIKLLAVSGKNISLGPQNVFCDVPLTIRLWDVGEEVYGIQIYTLDEHLEIDAAMLTSTADTPLCLQCKPLKYKVVRDPPLQMDVASILHLNRKFVDMDLNLGSVYQYWVITISGTEESEPSPAVTYIHGRGYCGDGIIQKDQGEQCDDMNKINGDGCSLFCRQEVSFNCIDEPSRCYFHDGDGVCEEFEQKTSIKDCGVYTPQGFLDQWASNASVSHQDQQCPGWVIIGQPAASQVCRTKVIDLSEGISQHAWYPCTISYPYSQLAQTTFWLRAYFSQPMVAAAVIVHLVTDGTYYGDQKQETISVQLLDTKDQSHDLGLHVLSCRNNPLIIPVVHDLSQPFYHSQAVRVSFSSPLVAISGVALRSFDNFDPVTLSSCQRGETYSPAEQSCVHFACEKTDCPELAVENASLNCSSSDRYHGAQCTVSCRTGYVLQIRRDDELIKSQTGPSVTVTCTEGKWNKQVACEPVDCSIPDHHQVYAASFSCPEGTTFGSQCSFQCRHPAQLKGNNSLLTCMEDGLWSFPEALCELMCLAPPPVPNADLQTARCRENKHKVGSFCKYKCKPGYHVPGSSRKSKKRAFKTQCTQDGSWQEGACVPVTCDPPPPKFHGLYQCTNGFQFNSECRIKCEDSDASQGLGSNVIHCRKDGTWNGSFHVCQEMQGQCSVPNELNSNLKLQCPDGYAIGSECATSCLDHNSESIILPMNVTVRDIPHWLNPTRVERVVCTAGLKWYPHPALIHCVKGCEPFMGDNYCDAINNRAFCNYDGGDCCTSTVKTKKVTPFPMSCDLQGDCACRDPQAQEHSRKDLRGYSHG
On to B2, for which the “PAPP-A cleavage of human IGFBP4 at one antibody concentration (50 nM)” value in data set [4] is on record as “the five representative antibodies effectively blocking cleavage of human IGFBP4”. In addition, the “enzymatic cleavage of IGFBP by PAPP-A” value was “cleavage of both human and murine IGFBP-4 and IGFBP-2 by PAPP-A” in data set [5]; “cleavage of both human and murine IGFBP-4 and IGFBP-2 by PAPP-A” in data set [6]; “PAPP-A's ability to cleave IGFBP-5” in data set [7].
